# Experimental data as given in publication PMC10500007 (2023).
# How the values were obtained:
# [1] = target: T1, human integrin αvβ6 (soluble, construct not stated) (human, UniProt P06756 31-1048; P18564 22-709); assay: BLI
# T1 chain 1: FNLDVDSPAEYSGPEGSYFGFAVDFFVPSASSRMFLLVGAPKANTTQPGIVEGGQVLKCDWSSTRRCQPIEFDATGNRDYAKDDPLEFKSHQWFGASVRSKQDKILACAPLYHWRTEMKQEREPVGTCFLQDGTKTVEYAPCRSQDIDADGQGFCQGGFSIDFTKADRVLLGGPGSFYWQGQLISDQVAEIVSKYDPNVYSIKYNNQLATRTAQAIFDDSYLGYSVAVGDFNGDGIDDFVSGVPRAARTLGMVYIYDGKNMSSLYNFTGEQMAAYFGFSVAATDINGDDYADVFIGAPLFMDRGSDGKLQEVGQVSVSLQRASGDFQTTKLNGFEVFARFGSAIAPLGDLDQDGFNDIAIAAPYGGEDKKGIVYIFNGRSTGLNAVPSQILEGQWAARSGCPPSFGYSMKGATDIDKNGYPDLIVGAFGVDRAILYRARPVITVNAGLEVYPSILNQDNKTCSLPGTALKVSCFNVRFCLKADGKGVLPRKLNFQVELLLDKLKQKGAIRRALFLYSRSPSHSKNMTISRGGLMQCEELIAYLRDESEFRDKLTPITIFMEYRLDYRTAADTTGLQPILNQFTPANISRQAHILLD
# T1 chain 2: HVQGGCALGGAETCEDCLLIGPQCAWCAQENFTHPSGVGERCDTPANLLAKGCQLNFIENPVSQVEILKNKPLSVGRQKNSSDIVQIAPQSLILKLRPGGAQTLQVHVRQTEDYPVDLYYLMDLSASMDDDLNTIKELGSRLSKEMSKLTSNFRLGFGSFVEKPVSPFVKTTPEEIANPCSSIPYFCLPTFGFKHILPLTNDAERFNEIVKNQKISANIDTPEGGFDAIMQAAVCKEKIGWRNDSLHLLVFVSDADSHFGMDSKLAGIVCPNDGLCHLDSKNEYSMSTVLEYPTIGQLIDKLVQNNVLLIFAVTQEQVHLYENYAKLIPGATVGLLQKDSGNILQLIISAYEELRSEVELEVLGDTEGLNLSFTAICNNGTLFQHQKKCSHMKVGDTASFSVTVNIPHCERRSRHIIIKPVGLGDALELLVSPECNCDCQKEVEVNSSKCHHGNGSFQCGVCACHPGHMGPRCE
# αvβ1 = αvβ1 (Homo sapiens); assay: BLI
# αvβ1 (Homo sapiens), sequence (chain, as listed by the source, chain 2 of 2, one chain of several): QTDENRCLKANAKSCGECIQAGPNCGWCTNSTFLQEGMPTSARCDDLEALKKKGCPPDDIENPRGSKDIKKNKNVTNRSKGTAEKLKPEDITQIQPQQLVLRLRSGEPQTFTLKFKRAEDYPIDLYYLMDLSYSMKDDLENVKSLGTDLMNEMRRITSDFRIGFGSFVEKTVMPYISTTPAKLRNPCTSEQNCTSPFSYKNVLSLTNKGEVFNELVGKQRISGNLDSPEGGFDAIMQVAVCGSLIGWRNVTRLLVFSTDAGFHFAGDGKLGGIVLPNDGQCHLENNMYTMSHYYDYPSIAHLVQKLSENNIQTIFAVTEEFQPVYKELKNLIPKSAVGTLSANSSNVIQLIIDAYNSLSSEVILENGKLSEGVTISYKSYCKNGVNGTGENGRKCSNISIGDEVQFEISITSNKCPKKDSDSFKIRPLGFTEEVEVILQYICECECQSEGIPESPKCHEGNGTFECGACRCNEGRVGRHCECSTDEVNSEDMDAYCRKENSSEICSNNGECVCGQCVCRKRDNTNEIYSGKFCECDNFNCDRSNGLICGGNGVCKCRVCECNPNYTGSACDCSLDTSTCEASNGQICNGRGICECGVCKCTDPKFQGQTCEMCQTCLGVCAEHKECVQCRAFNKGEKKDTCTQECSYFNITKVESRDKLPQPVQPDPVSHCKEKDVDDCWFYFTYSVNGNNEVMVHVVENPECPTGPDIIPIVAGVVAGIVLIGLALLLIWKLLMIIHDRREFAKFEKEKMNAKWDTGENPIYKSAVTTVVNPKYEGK
# αIIbβ3 = αIIbβ3 (Homo sapiens); assay: BLI
# αvβ5 = target: T2, αvβ5 (Homo sapiens); assay: BLI
# T2 chain 1: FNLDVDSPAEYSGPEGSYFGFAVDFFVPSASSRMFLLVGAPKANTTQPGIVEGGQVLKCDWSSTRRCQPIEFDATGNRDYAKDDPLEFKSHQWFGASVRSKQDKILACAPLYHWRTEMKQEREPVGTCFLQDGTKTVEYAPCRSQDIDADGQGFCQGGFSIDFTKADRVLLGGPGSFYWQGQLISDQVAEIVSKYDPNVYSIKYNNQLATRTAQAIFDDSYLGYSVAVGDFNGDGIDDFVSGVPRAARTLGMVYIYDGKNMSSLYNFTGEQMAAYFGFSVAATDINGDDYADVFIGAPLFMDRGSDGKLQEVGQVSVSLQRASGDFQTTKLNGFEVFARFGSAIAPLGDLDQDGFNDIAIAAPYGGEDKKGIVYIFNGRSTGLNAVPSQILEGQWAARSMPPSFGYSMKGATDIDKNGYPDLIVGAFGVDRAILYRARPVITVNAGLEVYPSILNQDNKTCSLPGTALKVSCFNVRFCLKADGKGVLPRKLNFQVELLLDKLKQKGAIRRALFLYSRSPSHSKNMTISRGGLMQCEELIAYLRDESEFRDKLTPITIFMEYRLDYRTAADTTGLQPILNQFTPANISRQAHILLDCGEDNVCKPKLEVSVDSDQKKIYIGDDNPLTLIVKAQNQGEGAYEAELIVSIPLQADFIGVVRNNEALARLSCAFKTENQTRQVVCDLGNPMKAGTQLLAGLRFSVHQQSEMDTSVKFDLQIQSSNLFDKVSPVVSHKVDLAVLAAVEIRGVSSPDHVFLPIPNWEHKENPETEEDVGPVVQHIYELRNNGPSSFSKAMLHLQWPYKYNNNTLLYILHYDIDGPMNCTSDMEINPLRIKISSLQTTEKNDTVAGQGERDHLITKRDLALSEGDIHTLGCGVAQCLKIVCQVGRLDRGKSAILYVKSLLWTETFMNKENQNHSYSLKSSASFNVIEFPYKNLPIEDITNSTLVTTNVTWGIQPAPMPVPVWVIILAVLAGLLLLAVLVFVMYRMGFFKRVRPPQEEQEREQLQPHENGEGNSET
# T2 chain 2: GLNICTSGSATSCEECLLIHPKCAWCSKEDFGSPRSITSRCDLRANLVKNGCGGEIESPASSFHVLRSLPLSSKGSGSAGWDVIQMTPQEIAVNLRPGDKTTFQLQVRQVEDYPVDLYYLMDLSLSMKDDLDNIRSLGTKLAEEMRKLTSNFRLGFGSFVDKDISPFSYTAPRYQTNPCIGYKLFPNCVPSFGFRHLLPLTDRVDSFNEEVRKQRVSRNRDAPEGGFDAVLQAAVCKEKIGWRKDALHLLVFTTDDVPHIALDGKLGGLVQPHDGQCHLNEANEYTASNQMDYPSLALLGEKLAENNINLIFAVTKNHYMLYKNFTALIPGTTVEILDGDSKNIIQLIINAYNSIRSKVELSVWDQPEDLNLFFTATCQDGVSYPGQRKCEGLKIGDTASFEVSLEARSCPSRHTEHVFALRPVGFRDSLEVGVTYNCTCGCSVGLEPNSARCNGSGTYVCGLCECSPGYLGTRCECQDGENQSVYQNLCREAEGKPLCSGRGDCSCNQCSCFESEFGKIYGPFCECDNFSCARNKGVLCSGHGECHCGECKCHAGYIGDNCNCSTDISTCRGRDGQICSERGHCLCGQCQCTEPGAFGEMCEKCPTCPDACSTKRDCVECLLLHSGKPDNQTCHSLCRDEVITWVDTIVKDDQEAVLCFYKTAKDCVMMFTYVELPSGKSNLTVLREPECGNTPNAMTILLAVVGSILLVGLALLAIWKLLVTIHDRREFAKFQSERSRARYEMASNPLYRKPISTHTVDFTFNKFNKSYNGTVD
# αvβ3 = target: T3, αvβ3 (Homo sapiens); assay: BLI
# T3 chain 1: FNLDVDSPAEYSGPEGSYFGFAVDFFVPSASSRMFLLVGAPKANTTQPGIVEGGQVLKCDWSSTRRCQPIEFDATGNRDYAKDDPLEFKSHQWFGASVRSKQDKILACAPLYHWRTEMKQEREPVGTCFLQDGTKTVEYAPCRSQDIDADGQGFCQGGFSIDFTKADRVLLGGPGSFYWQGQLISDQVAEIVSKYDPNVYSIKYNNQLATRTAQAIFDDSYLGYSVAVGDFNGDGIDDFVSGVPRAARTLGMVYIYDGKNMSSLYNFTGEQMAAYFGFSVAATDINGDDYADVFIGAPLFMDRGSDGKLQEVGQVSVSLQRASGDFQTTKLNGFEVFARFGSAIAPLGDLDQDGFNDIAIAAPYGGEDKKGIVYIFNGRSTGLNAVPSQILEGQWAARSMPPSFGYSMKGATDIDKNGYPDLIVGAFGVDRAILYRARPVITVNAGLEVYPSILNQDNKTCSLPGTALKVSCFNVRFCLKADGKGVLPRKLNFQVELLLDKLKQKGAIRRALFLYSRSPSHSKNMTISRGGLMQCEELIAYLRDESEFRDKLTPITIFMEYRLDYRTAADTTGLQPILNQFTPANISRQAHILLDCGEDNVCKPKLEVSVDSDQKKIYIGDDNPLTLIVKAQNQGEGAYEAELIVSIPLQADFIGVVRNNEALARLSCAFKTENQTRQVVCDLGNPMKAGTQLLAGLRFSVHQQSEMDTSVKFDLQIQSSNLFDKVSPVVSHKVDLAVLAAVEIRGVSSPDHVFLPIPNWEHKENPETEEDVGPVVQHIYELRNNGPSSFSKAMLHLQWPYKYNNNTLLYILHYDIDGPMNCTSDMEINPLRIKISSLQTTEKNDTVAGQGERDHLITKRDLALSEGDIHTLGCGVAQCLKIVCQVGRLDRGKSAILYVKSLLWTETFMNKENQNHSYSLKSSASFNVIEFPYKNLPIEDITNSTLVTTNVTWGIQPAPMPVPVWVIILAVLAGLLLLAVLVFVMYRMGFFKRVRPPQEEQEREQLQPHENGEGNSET
# T3 chain 2: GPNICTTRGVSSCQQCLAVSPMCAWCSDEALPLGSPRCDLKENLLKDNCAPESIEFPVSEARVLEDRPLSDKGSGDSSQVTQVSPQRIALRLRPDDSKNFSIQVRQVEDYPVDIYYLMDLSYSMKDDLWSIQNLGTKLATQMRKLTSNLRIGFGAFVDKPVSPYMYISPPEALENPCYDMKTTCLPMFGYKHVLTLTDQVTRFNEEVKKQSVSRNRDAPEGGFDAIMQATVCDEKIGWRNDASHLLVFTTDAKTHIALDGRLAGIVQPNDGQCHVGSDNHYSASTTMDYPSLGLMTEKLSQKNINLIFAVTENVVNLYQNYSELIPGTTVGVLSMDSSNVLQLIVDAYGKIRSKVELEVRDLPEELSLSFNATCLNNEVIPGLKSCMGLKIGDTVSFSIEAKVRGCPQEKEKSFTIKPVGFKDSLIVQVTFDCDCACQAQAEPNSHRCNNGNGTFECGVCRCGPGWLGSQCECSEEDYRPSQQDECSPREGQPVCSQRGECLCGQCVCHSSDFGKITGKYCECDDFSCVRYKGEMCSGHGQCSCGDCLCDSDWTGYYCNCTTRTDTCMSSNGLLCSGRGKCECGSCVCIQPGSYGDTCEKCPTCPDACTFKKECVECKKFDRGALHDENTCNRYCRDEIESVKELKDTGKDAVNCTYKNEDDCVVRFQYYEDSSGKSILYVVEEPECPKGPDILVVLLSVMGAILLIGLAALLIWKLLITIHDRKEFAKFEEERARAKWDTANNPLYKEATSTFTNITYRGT
# α8β1 = α8β1 (Homo sapiens); assay: BLI
# α8β1 (Homo sapiens), sequence (chain, as listed by the source, chain 1 of 2): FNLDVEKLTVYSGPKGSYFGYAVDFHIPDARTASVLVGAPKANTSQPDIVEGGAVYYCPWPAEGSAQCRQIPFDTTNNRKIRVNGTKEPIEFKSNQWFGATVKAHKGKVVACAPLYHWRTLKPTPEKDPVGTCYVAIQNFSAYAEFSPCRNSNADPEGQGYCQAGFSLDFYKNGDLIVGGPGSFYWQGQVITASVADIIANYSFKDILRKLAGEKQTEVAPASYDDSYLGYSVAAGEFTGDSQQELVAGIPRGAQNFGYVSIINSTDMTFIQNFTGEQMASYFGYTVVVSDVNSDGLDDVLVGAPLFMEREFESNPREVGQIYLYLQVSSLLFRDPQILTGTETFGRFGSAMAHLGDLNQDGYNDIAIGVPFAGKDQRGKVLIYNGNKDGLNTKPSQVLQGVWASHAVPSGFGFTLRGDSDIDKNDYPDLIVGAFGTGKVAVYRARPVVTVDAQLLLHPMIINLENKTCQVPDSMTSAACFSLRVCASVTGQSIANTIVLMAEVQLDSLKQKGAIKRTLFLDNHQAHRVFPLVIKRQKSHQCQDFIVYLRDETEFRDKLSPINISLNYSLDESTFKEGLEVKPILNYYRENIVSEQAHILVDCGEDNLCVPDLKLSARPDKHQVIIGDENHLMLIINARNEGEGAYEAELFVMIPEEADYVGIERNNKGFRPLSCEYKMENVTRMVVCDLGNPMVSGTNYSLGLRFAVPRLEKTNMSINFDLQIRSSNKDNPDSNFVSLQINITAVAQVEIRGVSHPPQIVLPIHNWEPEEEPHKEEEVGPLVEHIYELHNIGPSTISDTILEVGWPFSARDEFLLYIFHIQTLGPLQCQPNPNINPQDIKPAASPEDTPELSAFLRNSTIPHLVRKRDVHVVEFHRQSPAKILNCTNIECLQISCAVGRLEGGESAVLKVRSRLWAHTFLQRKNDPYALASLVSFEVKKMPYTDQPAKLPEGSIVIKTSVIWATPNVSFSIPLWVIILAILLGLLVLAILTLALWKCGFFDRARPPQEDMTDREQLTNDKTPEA
# α8β1 (Homo sapiens), sequence (chain, as listed by the source, chain 2 of 2): as the sequence (chain, as listed by the source, chain 2 of 2, one chain of several) above
# α5β1 = α5β1 (Homo sapiens); assay: BLI
# α5β1 (Homo sapiens), sequence (chain, as listed by the source, chain 1 of 2): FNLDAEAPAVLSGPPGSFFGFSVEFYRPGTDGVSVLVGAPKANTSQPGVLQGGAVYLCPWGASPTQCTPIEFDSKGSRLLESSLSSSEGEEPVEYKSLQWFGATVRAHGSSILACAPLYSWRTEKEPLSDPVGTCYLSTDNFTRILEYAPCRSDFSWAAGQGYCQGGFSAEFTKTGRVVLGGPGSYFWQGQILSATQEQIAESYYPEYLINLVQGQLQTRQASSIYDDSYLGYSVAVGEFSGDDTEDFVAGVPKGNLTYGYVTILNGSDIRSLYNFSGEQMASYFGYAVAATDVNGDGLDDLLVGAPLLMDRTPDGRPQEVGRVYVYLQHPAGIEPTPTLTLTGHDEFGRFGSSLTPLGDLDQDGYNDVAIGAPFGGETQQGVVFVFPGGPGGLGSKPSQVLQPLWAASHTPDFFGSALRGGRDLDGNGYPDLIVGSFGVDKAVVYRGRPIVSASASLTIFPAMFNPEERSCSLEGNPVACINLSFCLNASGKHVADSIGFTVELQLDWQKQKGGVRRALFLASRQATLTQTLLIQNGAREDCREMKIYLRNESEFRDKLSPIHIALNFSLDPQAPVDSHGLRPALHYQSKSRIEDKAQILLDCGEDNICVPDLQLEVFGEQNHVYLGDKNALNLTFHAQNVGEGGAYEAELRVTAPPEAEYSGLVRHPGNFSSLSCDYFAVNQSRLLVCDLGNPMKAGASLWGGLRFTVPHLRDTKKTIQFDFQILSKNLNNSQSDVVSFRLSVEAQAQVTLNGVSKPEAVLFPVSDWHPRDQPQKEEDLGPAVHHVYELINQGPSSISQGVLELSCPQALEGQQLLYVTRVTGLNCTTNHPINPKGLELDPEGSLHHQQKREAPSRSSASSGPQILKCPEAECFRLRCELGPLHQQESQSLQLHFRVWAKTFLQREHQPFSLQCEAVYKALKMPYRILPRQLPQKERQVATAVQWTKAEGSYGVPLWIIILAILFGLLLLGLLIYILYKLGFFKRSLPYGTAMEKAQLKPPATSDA
# α5β1 (Homo sapiens), sequence (chain, as listed by the source, chain 2 of 2): as the sequence (chain, as listed by the source, chain 2 of 2, one chain of several) above
# [2] = target: recombinant human integrin αvβ6 headpiece (Expi293F) (human, UniProt P06756 31-429; P18564 130-371, I287C); assay: ELISA; competition with hLAP1
# [3] = target: recombinant human integrin αvβ8 headpiece (Expi293F) (human, UniProt P06756); assay: ELISA; competition with hLAP1
# recombinant human integrin αvβ8 headpiece (Expi293F), sequence (P06756 whole entry, looked up): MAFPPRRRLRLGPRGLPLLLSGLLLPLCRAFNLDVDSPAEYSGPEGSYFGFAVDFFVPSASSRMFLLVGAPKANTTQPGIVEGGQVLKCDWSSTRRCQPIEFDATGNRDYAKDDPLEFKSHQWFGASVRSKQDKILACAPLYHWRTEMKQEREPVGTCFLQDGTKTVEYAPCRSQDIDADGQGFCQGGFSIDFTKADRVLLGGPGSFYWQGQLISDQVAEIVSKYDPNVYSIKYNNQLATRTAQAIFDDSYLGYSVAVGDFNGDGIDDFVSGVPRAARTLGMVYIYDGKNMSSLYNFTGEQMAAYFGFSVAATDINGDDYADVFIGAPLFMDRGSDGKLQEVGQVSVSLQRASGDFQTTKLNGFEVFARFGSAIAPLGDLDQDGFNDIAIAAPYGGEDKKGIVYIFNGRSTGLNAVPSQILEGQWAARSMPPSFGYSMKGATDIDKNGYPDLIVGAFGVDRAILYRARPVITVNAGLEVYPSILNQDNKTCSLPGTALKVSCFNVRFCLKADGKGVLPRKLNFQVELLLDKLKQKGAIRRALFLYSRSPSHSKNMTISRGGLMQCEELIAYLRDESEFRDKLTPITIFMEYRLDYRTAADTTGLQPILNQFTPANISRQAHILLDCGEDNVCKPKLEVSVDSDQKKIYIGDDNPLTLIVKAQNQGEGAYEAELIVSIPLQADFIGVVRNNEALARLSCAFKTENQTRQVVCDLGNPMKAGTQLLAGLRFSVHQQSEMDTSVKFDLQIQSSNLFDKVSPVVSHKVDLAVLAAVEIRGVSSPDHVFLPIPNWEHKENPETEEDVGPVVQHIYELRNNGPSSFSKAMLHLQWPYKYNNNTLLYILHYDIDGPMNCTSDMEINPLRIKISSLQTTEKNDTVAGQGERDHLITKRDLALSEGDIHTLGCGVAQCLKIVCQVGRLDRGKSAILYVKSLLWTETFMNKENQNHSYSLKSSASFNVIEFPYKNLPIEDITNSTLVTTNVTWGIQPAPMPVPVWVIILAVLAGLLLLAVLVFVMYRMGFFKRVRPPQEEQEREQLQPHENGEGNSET
# [4] = target: T4, human integrin αvβ8 (soluble, construct not stated) (human, UniProt P06756 31-1048; P26012 43-684); assay: BLI
# T4 chain 1: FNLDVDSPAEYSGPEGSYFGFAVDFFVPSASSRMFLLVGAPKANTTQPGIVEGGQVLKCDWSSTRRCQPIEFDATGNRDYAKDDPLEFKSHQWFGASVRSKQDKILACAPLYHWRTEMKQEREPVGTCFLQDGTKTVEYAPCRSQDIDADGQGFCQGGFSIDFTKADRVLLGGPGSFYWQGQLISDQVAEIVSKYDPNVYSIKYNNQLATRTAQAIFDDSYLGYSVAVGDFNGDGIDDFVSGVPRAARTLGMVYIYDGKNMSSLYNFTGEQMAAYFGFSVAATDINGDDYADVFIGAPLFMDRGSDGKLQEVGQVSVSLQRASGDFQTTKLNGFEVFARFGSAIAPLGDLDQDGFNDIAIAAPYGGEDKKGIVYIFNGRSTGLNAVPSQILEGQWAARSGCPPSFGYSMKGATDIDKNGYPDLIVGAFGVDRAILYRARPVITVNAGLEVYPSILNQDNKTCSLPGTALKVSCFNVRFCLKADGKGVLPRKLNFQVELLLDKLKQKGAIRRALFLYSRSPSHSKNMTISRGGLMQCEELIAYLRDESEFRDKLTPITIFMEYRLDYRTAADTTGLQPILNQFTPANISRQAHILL
# T4 chain 2: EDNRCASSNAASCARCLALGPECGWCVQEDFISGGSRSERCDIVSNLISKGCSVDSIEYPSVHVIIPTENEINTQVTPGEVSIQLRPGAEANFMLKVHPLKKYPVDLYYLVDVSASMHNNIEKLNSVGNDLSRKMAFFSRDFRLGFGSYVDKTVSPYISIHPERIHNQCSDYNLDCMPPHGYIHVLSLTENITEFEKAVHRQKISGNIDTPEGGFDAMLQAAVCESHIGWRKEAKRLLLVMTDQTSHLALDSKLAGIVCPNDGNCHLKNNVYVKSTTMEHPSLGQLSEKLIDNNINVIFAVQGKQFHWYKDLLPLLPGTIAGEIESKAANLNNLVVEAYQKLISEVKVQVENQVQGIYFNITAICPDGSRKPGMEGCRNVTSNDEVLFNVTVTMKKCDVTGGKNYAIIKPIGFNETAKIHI
binder,measurement,setting,value
"MAVI (protein, N/C-terminal disulfide staple (Cys3-Cys74); B8_BP_dslf with MAVY motif changed to MAVI) TKCVVRFNFRGDMAVIALKAVKDHLKKEGPHWNITTHNDDEVYLVVRGIHESDAKRIAKWVESTIPGISVETQCD",Kd,[1],1.2 nM
B8_BP-LATY (designed binder) TKCVVRFNFRGDLATYALKAVKDHLKKEGPHWNITTHNDDEVYLVVRGIHESDAKRIAKWVESTIPGISVETQCD,Kd,[1],> 500 nM
"B8_BP-LATY (designed binder, full-length mature chains taken as on K562 cells; soluble ectodomain possible for BLI; divalent cations, glycosylated) TKCVVRFNFRGDLATYALKAVKDHLKKEGPHWNITTHNDDEVYLVVRGIHESDAKRIAKWVESTIPGISVETQCD",Kd,αvβ1,> 1000 nM
same,Kd,αIIbβ3,> 1000 nM
same,Kd,αvβ5,> 1000 nM
same,Kd,αvβ3,> 1000 nM
same,Kd,α8β1,> 1000 nM
same,Kd,α5β1,> 1000 nM
B8_BP_dslf (designed binder) TKCVVRFNFRGDMAVYALKAVKDHLKKEGPHWNITTHNDDEVYLVVRGIHESDAKRIAKWVESTIPGISVETQCD,IC50,[2],> 500 nM
same,Kd,[1],> 1000 nM
"MATI (protein, N/C-terminal disulfide staple (Cys3-Cys74); B8_BP_dslf with MAVY motif changed to MATI) TKCVVRFNFRGDMATIALKAVKDHLKKEGPHWNITTHNDDEVYLVVRGIHESDAKRIAKWVESTIPGISVETQCD",Kd,[1],1.2 nM
"B6_BP_dslf (designed binder, full-length mature chains taken as on K562 cells; soluble ectodomain possible for BLI; divalent cations, glycosylated) TKCVVRFVFRGDLAELMLRAVKDHLKKEGPHWNITSTNNGKELVVRGIHESDAKRIAKWVEKRFPRVHTETQCD",Kd,αvβ1,> 200 nM
same,Kd,αIIbβ3,> 200 nM
same,Kd,αvβ5,> 200 nM
same,Kd,αvβ3,> 200 nM
same,Kd,α8β1,> 200 nM
same,Kd,α5β1,> 200 nM
B6_BP_dslf (designed binder) TKCVVRFVFRGDLAELMLRAVKDHLKKEGPHWNITSTNNGKELVVRGIHESDAKRIAKWVEKRFPRVHTETQCD,IC50,[3],~80 nM
same,Kd,[1],0.11 nM
same,Kd,[4],580 nM
